In this test the target is native Ocr protein (bacteriophage T7 gene 0.3 product) as produced from pMCSG7 (bacteriophage T7). Put plainly: size exclusion chromatography, Superdex 75; predicted monomer 16.6 kDa, dimer 33.3 kDa.

Regarding “native Ocr protein (bacteriophage T7 gene 0.3 product) as produced from pMCSG7”, the calculated molecular weight on size exclusion column was 35 kDa.
